Bridge positions count the residues as written; N and C are the ends. Ends that are not written are not given here.
Key:
[1] = Dynamic light scattering of cyclic peptide/siRNA and cyclic peptide/lipid/siRNA formulations; type: physicochemical; conditions: cyclic peptide/RNA 3:1; before and after binding with lipids (DSPC/cholesterol/RNA 2.4/3.1/1), DLS
Description: Sample 5 and 8 were selected and initially mixed in a microfluidic channel at a mass ratio of 3:1 cyclic peptide/RNA to form a particle solution, which was then left to stabilize.
The mass ratio of distearoylphosphatidylcholine (DSPC)/cholesterol/RNA was set at 2.4/3.1/1. DSPC and cholesterol were weighed and dissolved in a certain volume of ethanol solution.
The cyclic peptide/siRNA aqueous solution was mixed with the lipid ethanol solution through a microfluidic channel to form composite particles again, where the final concentration of ethanol was 25%. Dialysis was used to remove the ethanol, and the final lipid/cyclic peptide/nucleic acid composite particles were collected.
Using the Malvern Zetasizer Nano ZS, the particle size and polydispersity index (PDI) before and after binding with lipids (5-L and 8-L) were measured for sample 5 and 8 using dynamic light scattering.

siRNA = test: Agarose gel electrophoresis of cyclic peptide/siRNA formulations (encapsulation); type: physicochemical; conditions: mass ratio of 4:1 of cyclic peptide/siRNA
Procedure: a. Weigh out 0.5 g of agarose powder and pour it into a conical flask, then add 50 mL of 1×TAE electrophoresis buffer into the flask. Dissolve it completely under heating conditions.
b. After cooling to 65° C., add 5 μL of ethidium bromide, swiftly pour into the gel casting tray, insert the comb, and let it stand at room temperature for 0.5-1 hour until the gel solidifies.
c. Next, remove the comb, pour 1×TAE electrophoresis buffer into the well to submerge the gel.
d. Prepare nine formulations of cyclic peptides with siRNA, using samples 1-9 at mass ratios of 1-4 of sample/siRNA. Mix 2 μL of 6× loading dye with 10 μL of samples, load 10 μL into the wells, and concurrently load 10 μL of DNA Marker and bare siRNA into the wells as controls.
e. Subsequently, run the electrophoresis at […] for 45 minutes, turn off the power supply, remove the gel, and observe and record the electrophoresis image with a UV gel imaging system.

[2] = Dynamic light scattering of particles formed by cyclic peptide samples with siRNA; type: physicochemical; conditions: cyclic peptide/RNA mass ratio 4:1, DLS; for Zeta potential: in mV (unit assumed)
Procedure: Utilizing the Malvern Zetasizer Nano ZS (Malvern Nano Particle Sizing Instrument), the particle size (Size), polydispersity index (PDI), and zeta potential (Zeta P) of the particles formed after samples 1-9 encapsulate siRNA at a cyclic peptide/RNA mass ratio of 4:1 were measured by dynamic light scattering (DLS).

293T cells = test: EGFP mRNA transfection, fluorescence microscopy; type: cell-based, human; conditions: 24 hours, S5/mRNA mass ratios 10:1, 12.5:1, 15:1
Description: 1. Sample preparation: Sample 5 (S5) was selected and mixed in a microfluidic channel to form a particle solution at different cyclic peptide/mRNA mass ratios (10:1, 12.5:1, 15:1), and then left to stabilize.
2. Control formulation: A lipid nanoparticle (LNP) control at a ratio of 4-(N,N-dimethylamino) butyric acid (dilinoleyl) methyl ester/DSPC/cholesterol/1,2-dimyristoyl-rac-glycerol-3-methoxypolyethylene glycol 2000=50:10:38.5:1.5 was used and mRNA was encapsulated according to the method described in Embodiment 3.
3. Cell plating: 293T cells were plated in a 24-well plate with 9 wells per cell type, each well containing 1 ml of medium and 1×10^5 cells, grown for 12 hours until adherence.
4. Solution preparation: PBS (control); for each group in 3 ml serum-free medium, 3×20 μl=60 μl of prepared sample was added and mixed well, 1 ml per well. Transfection group (lipo2000); in 1.2 ml serum-free medium, add 30 μl of mRNA at a concentration of 0.1 μg/μl and 3 μl×3=9 μl of lipo2000, mix well, let stand for 5-10 min. Cells were washed, transfection reagent was added at 400 μl per well, topped up with 600 μl DMEM complete medium. […]
5. Photo capture: Fluorescence photo: exposure time 600 ms, exposure magnification 14, exposure brightness +1; white light photo: exposure time 10 ms, exposure magnification 1, exposure brightness +1.

With “Arg-Asp-Gly-Lys-Lys-Lys-Leu-Lys-Lys-Lys-Leu-Cys-Gln-Leu-Ile-Lys-Gln-Leu-Ile-Lys-Gln-Leu-Ile-Lys-Gln-Leu-Ile-Lys-Ile-Leu-Gln-Cys-Leu-Lys-Lys-Lys-Leu-Lys-Lys-Lys-Gly-Asp-Arg (RDGKKKLKKKLCQLIKQLIKQLIKQLIKILQCLKKKLKKKGDR; disulfide 12-32 (inferred)) [Sample 8]” the PDI [1] was 0.15, the Size [1] was 31.85 nm and the “encapsulation of siRNA (agarose gel electrophoresis)” value (“encapsulation of siRNA” below) (siRNA) was “encapsulate siRNA effectively”. For the same substance, the Polydispersity index [2] was 0.143, the Size [2] was 29.92 nm and the Zeta potential [2] was 16.5.
Work on “KKMLKKMLCQKKKKKQCLMKKLMKK (cysteine pairing not given here) [Sample 2]” yielded a Polydispersity index [2] of 0.326, a Size [2] of 211.9 nm and a Zeta potential [2] of 34.1.
In the case of “Lys-Ala-Met-Leu-Lys-Ala-Met-Leu-Lys-Ala-Met-Leu-Cys-Lys-Lys-Lys-Lys-Lys-Lys-Lys-Lys-Lys-Lys-Lys-Lys-Lys-Lys-Lys-Cys-Leu-Met-Ala-Lys-Leu-Met-Ala-Lys-Leu-Met-Ala-Lys (KAMLKAMLKAMLCKKKKKKKKKKKKKKKCLMAKLMAKLMAK; disulfide 13-29 (inferred)) [Sample 7]”, the “encapsulation of siRNA” value (siRNA) is reported as “encapsulate siRNA effectively”, the Polydispersity index [2] is reported as 0.139 and the Size [2] is reported as 145.1 nm. For the same substance, the Zeta potential [2] was 26.3.
With “Lys-Lys-Leu-Lys-Lys-Leu-Lys-Lys-Leu-Lys-Lys-Leu-Cys-Ala-Phe-Lys-Ala-Phe-Lys-Ala-Phe-Lys-Ala-Phe-Lys-Phe-Ala-Cys (KKLKKLKKLKKLCAFKAFKAFKAFKFAC; disulfide 13-28 (inferred)) [Sample 4]” the “encapsulation of siRNA” value (siRNA) was “poor encapsulation effects”, the Polydispersity index [2] was 0.542 and the Size [2] was 264.5 nm. It also gave a Zeta potential [2] of 18.6.
In the case of “Lys-Lys-Leu-Lys-Lys-Leu-Cys-Lys-Lys-Lys-Lys-Lys-Lys-Lys-Lys-Lys-Lys-Lys-Lys-Lys-Lys-Cys-Leu-Lys-Lys-Leu-Lys-Lys (KKLKKLCKKKKKKKKKKKKKKCLKKLKK; disulfide 7-22 (inferred)) [Sample 3]”, the Polydispersity index [2] is reported as 0.065, the Size [2] is reported as 299.1 nm and the Zeta potential [2] is reported as 21.3.
In the case of “Arg-Asp-Gly-Lys-Val-Gln-Leu-Lys-Val-Gln-Leu-Cys-Gln-Lys-Lys-Lys-Gln-Lys-Lys-Lys-Gln-Lys-Lys-Lys-Gln-Lys-Lys-Lys-Lys-Lys-Gln-Cys-Leu-Gln-Val-Lys-Leu-Gln-Val-Lys-Gly-Asp-Arg (RDGKVQLKVQLCQKKKQKKKQKKKQKKKKKQCLQVKLQVKGDR; disulfide 12-32 (inferred)) [Sample 9]”, the “encapsulation of siRNA” value (siRNA) is reported as “encapsulate siRNA effectively”, the Polydispersity index [2] is reported as 0.169 and the Size [2] is reported as 111.3 nm. The Zeta potential [2] was 23.0.
With “Ala-Ala-Leu-Ala-Ala-Leu-Ala-Ala-Leu-Cys-Lys-Lys-Lys-Lys-Lys-Cys-Leu-Ala-Ala-Leu-Ala-Ala-Leu-Ala-Ala (AALAALAALCKKKKKCLAALAALAA; disulfide 10-16 (inferred)) [Sample 1]” the Polydispersity index [2] was 0.254, the Size [2] was 159.6 nm and the Zeta potential [2] was 7.09.
In the case of “Lys-Leu-Leu-Lys-Leu-Leu-Lys-Leu-Leu-Lys-Leu-Leu-Cys-Lys-Lys-Lys-Lys-Lys-Cys-Leu-Leu-Lys-Leu-Leu-Lys-Leu-Leu-Lys-Leu-Leu-Lys (KLLKLLKLLKLLCKKKKKCLLKLLKLLKLLK; disulfide 13-19 (inferred)) [Sample 5]”, the PDI [1] is reported as 0.176, the Size [1] is reported as 60.17 nm and the “encapsulation of siRNA” value (siRNA) is reported as “encapsulate siRNA effectively”. For the same substance, the Polydispersity index [2] was 0.133, the Size [2] was 81.02 nm and the “green fluorescent protein expression intensity versus control LNP group” value (293T cells) was “more pronounced green fluorescent protein compared to the control LNP group”.
Substance “Lys-Gln-Val-Leu-Lys-Gln-Val-Leu-Cys-Gln-Lys-Lys-Lys-Gln-Lys-Lys-Lys-Gln-Lys-Lys-Lys-Gln-Lys-Lys-Lys-Lys-Lys-Gln-Cys-Leu-Val-Gln-Lys-Leu-Val-Gln-Lys (KQVLKQVLCQKKKQKKKQKKKQKKKKKQCLVQKLVQK; disulfide 9-29 (inferred)) [Sample 6]” has a Polydispersity index [2] of 0.355, a Size [2] of 32.58 nm and a Zeta potential [2] of 21.2.
